This is an account of results in patent US20250161505A1, “CD206 Targeted Peptide Conjugates and Methods of Using the Same” (Riptide Bioscience, Inc., priority 2022, published 2025).

Where a SMILES comes first, the peptide text is derived from it. The star is where a group is joined. DOTA = O=C(O)CN1CCN(CC(=O)O)CCN(CC(=O)*)CCN(CC(=O)O)CC1

The format of data set [1] is in vitro ADME. To be noted: mouse, serum.
Protocol: Labeling of RP-832 and MART-1 with ^68Ga was accomplished by adding 10 μg of peptide to 500 μCi of ^68GaCl3 in 50 μL of 1 M sodium acetate buffer (pH 4.5). The reactions were incubated in a thermomixer at 95 degrees Celsius for 14 minutes with 300 rpm agitation. Incorporation of the ^68Ga was determined by radio-High Performance Liquid Chromatography (HPLC) immediately after the reaction. Analysis was performed using a C-18 column. The gradient elution system utilized mobile phase A (100% water 0.1% TFA) and mobile phase C (Acetonitrile containing 0.1% TFA) with a flow rate of 1.0 mL/min. The gradient started with 100% A and was increased to 100% C over 6.67 minutes and then returned to the initial gradient conditions within 4.66 minutes. […] The mixtures were incubated at 37 degrees Celsius with 400 rpm agitation up to three hours. Aliquots were removed at different time points (30 minutes, 1, 2, 3 h) to evaluate stability and analyzed using radio-HPLC as described above. All experiments were completed in triplicate.
The test system of the next data set is syngeneic CT26 tumors. Kind of data set: in vivo. On the set-up: species or system BALB/c mice. To be noted: mouse. Here is the method:
(§1) 4T1 cells, a mouse breast cancer cell line (ATCC), and CT26 cells, a mouse colon carcinoma cell line (ATCC), were cultured in RPMI-1640 medium (ATCC) with 10 percent fetal bovine serum and 0.1 percent gentamicin at 37 degrees Celsius with 5 percent CO2. Wild-type BALB/c mice (Charles River) were used for syngeneic 4T1 and CT26 tumor models and were subcutaneously injected in the shoulder with 200,000 4T1 cells and 2×10^6 CT26 cells (with Matrigel). Tumors were allowed to grow for 10 days. Dynamic imaging studies were performed with a GNEXT small animal PET/CT (SOFIE). […] After 45 minutes, a high-resolution CT scan was obtained for anatomical reference. […] After 1 hour, a high-resolution CT scan was obtained for anatomical reference. During imaging, mice were anesthetized with 2.5 percent isoflurane/oxygen. The PET data was reconstructed into 5-minute time frames. Regions of interest (ROI) were drawn based on the CT anatomical guidelines. The mean standardized uptake value (SUV) was quantified using VivoQuant software with the equation: Where C is the activity concentration in tissue, dose is the injected dose, and weight is the body weight of the mouse. Statistical analysis was conducted with Graphpad Prism software.

Data set [2] in a line: in vivo. Particulars: BALB/c, mouse, total radioactivity. Also noted: species or system BALB/c mice. Here is the method: as §1
For another data set, the system named is syngeneic 4T1 tumors. Nature of the data set: in vivo. On the set-up: species or system BALB/c mice. To be noted: mouse. How it is done:
as §1

A short description of data set [3]: in vivo. On the set-up: species or system BALB/c mice. Particulars: BALB/c, mouse, total radioactivity, average percent injected dose per gram of organ. Here is the method:
4T1 cells, a mouse breast cancer cell line (ATCC), and CT26 cells, a mouse colon carcinoma cell line (ATCC), were cultured in RPMI-1640 medium (ATCC) with 10 percent fetal bovine serum and 0.1 percent gentamicin at 37 degrees Celsius with 5 percent CO2. Wild-type BALB/c mice (Charles River) were used for syngeneic 4T1 and CT26 tumor models and were subcutaneously injected in the shoulder with 200,000 4T1 cells and 2×10^6 CT26 cells (with Matrigel). Tumors were allowed to grow for 10 days. Following the [^68Ga]832c imaging studies, animals were euthanized, and organs of interest removed and assessed for radioactivity. For all biodistribution studies, specific uptake for each tissue was measured with background and decay correction and expressed as percent injected dose per gram of tissue (% ID/g) as calculated by normalization to the total activity injected.

The target of the next data set is T1, Recombinant human CD206 (Homo sapiens, UniProt P22897).
T1 construct: purchased R&D systems 2534-MR-050
T1 sequence (P22897 19-1456): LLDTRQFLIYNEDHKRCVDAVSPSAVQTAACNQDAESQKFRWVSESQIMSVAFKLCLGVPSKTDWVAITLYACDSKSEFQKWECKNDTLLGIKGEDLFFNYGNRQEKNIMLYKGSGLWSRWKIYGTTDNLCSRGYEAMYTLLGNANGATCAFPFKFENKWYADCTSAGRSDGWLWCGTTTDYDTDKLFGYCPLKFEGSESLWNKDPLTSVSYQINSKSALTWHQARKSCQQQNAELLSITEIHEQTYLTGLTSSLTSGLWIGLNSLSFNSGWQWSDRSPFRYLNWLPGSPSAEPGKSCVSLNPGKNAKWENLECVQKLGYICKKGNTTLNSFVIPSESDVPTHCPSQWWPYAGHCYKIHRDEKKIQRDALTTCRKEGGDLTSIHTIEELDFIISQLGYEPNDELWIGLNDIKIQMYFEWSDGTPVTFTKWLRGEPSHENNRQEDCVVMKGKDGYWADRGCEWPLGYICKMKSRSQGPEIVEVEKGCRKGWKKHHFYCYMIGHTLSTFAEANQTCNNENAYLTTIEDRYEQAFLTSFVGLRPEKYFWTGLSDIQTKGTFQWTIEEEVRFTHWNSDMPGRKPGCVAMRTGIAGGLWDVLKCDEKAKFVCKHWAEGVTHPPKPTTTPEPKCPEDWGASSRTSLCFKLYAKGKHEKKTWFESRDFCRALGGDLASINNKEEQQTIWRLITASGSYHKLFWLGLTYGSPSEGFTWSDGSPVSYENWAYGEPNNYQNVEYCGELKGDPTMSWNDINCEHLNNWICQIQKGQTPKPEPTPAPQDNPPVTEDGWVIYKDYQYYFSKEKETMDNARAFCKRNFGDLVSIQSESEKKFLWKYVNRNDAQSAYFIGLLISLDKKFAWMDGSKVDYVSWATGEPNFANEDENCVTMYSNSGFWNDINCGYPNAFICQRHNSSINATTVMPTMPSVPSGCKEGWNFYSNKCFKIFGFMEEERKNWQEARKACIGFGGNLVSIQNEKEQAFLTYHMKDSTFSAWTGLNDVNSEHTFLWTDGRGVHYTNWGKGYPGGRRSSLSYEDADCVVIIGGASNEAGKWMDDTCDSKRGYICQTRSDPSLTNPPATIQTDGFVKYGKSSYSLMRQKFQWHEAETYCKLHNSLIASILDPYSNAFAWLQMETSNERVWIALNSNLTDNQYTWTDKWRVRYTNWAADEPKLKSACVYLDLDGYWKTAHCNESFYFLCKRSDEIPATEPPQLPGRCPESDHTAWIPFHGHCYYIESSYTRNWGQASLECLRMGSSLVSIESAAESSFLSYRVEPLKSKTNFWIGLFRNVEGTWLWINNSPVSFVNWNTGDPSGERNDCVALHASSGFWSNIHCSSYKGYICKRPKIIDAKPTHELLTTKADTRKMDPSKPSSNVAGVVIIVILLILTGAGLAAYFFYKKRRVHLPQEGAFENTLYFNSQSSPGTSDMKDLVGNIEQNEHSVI
Kind of data set: Surface plasmon resonance (Biacore T200), immobilized CD206. To be noted: all concentrations (0.5 uM-10 uM). The data set is classed as binding. How it is done:
All SPR experiments were carried out using a Biacore T200 Biosensor instrument (GE Health Life Sciences, Piscataway, NJ). CM5 sensor chips, amine coupling reagents, and running buffers used in the binding analysis were obtained from Cytivalifesciences (Marlborough, MA).
Recombinant human CD206 was purchased from R&D systems (Catalog #2534-MR-050). CD206 protein was immobilized onto a CM5 sensor chip surface via standard amine coupling chemistry, using HBS-P+ running buffer (10 mM HEPES, [pH 7.4], 150 mM NaCl, and 0.05% Surfactant 20) at 25° C., as per manufacturer recommendation (Cytiva, Marlborough, MA). Briefly, carboxyl groups on the sensor chip flow cell surface (flow cell 2) were activated by injecting an equal mixture of 200 mM N-hydroxysuccinimide (NHS) and 50 mM 1-ethyl-3-(3-dimethylaminopropyl) carbodiimide hydrochloride) (EDC) at a flow rate of 10 μl/min. CD206 (25 μg/mL) was then diluted in 10 mM sodium acetate buffer pH 5.0 and injected over the surface at a flow rate of 10 μl/min until a level of 5000 resonance units (RU) was reached. This was followed by a 7 min injection of 1 M ethanolamine (pH 8) to block excessive reactive esters and wash away any non-covalently bound CD206. A blank flow cell surface (flow cell 1) was similarly activated with no protein injection, and used as a reference to subtract non-specific binding and bulk refractive index. […]
Background: SPR reads the build-up and loss of mass on a sensor chip optically.

The test system of data set [4] is PDL1 unresponsive melanoma. Particulars: PDL1 unresponsive melanoma murine models; cited from earlier work.
Data set [5] relates to tumor associated macrophages (TAMs). Particulars: cited from earlier work.
The test system of the next data set is CD206 macrophages. Particulars: through interactions with CD206 macrophages; cited from earlier work.

Take `N=C(N)NCCC[C@H](NC(=O)[C@H](Cc1c[nH]c2ccccc12)NC(=O)[C@H](CCCCN)NC(=O)[C@H](Cc1ccccc1)NC(=O)CNC(=O)CNC(=O)[C@H](Cc1ccccc1)NC(=O)[C@H](CCCCN)NC(=O)[C@H](Cc1c[nH]c2ccccc12)NC(=O)[C@H](CCCNC(=N)N)NC(=O)CN1CCN(CC(=O)O)CCN(CC(=O)O)CCN(CC(=O)O)CC1)C(=O)O` [[^68Ga]RP832c, metal not drawn] ({DOTA}-RWKFGGFKWR-OH): the “free ^68Ga (^68Ga remained complexed)” value in [1] is reported as “less than one percent free ^68Ga”. For the same compound, the “highest signal in maximum intensity projections (MIPs)” value in the data set with syngeneic CT26 tumors is “kidneys and bladder”. Further, the SUV at 0.25 h in “in vivo [2]” turned out to be 0.25 SUV. Also, the SUV at 40 min in “in vivo [2]” is 0.5 SUV. For the same compound, in the data set with syngeneic 4T1 tumors, the “highest signal in MIP images” value was “bladder”. Further, the tissue uptake – broadly, the share of the injected amount in each gram of the tissue – at 1.5 h in “in vivo [3]” (15 uCi, liver) turned out to be 1.66 %ID/g; in the data set “in vivo [3]” (15 uCi, spleen), 0.67 %ID/g; in “in vivo [3]” (15 uCi, tumor), 0.4 %ID/g; in the data set “in vivo [3]” (liver) it was 1.46 %ID/g; in “in vivo [3]” (spleen), 0.91 %ID/g; in the data set “in vivo [3]” (tumor), 0.57 %ID/g.
In the case of “DOTA-MART-1: MART-1 peptide with DOTA, not radiolabeled, control in SPR”, the binding sensorgram result with Recombinant human CD206 is “no binding”.
As to RWKFGGFKWR [RP-832c], the “effect on tumor resistance” value in data set [4] is reported as “shown promise in inhibiting tumor resistance”. Further, the “effect on population of tumor associated macrophages” value in data set [5] is “shift the population of tumor associated macrophages (TAMs) from M2 (pro-tumor) towards a M1 phenotype (anti-tumor)”. For the same compound, in the data set on CD206 macrophages, the “effect on bleomycin induced pulmonary fibrosis” value is reported as “inhibit bleomycin induced pulmonary fibrosis”.
